Experimental data: patent US20170283834A1, “Processes for Producing A Fermentation Product Using A Fermenting Organism” (Novozymes A/S, priority 2014, published 2017)

Key:
[1] = system: host proteases; assay: Cleavage during cultivation, SDS-PAGE of culture supernatants; parameters: species or system Aspergillus niger
Experimental: Aspergillus transformant of the variant and the wild type Penicillium oxalicum glucoamylase were cultivated in 6-well MT plates containing 4× diluted YP-2% maltose medium supplemented with 10 mM sodium acetate buffer, pH4.5, at 32° C. for 1 week.
The culture supernatants were loaded on SDS-PAGE.

[2] = Penicillium oxalicum glucoamylase: temperature optimum (Reaction condition assay); format: biochemical; conditions: for Relative activity (%): Temperature optimum
Experimental: (§1) Substrate: 1% soluble starch (Sigma S-9765) in deionized water
(§2) Reaction buffer: 0.1 M Acetate buffer at pH 5.3 Glucose concentration determination kit: Wako glucose assay kit (LabAssay glucose, WAKO, Cat#298-65701).
To assess the temperature optimum of the Penicillium oxalicum glucoamylase the “Reaction condition”-assay described above was performed at 20, 30, 40, 50, 60, 70, 80, 85, 90 and 95° C.

[3] = biological target: T1, aorsin (Aspergillus oryzae, UniProt Q8NK92); assay: PE001 protease stability, SDS-PAGE after protease treatment; format: biochemical
T1 sequence (Q8NK92 216-652): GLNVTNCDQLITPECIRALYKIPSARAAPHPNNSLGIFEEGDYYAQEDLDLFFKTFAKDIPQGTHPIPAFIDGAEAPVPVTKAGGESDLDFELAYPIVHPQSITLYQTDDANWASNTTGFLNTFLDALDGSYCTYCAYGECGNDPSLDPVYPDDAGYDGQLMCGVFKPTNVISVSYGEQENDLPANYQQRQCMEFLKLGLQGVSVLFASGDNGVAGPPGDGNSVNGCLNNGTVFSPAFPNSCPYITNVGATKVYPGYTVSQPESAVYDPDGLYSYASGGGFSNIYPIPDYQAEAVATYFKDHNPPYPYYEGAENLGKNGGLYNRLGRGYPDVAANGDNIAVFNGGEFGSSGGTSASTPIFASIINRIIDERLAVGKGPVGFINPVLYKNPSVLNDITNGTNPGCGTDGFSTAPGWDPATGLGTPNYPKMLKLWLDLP
Experimental: (§3) 40 μl enzyme solutions (1 mg/ml) in 50 mM sodium acetate buffer, pH 4.5, were mixed with 1/10 volume of 1 mg/ml protease solutions such as aspergillopepsin I described in Biochem J. 1975 April; 147(1):45-53, or the commercially available product from Sigma and aorsin described in Biochemical journal [0264-6021] Ichishima yr: 2003 vol:371 iss:Pt 2 pg:541 and incubated at 4 or 32° C. overnight. As a control experiment, H2O was added to the sample instead of proteases. The samples were loaded on SDS-PAGE to see if the glucoamylases are cleaved by proteases.

[4] = system: aspergillopepsin I; assay: as above; format: biochemical
Experimental: as §3

[5] = Penicillium oxalicum glucoamylase: pH optimum; format: biochemical; conditions: for Relative activity (%): pH optimum
Experimental: as §1
(§4) 20 microL soluble starch and 50 microL acetate buffer at pH 5.3 were mixed. 30 microL enzyme solution (50 micro g enzyme protein/ml) was added to a final volume of 100 microL followed by incubation at 37° C. for 15 min.
(§5) The glucose concentration was determined by Wako kits.
(§6) pH optimum. To assess the pH optimum of the Penicillium oxalicum glucoamylase the Reaction condition assay described above was performed at pH 2.0, 3.0, 3.5, 4.0, 4.5, 5.0, 6.0 7.0, 8.0, 9.0, 10.0 and 11.0. Instead of using the acetate buffer described in the Reaction condition assay the following buffer was used 100 mM Succinic acid, HEPES, CHES, CAPSO, 1 mM CaCl2, 150 mM KCl, 0.01% Triton X-100, pH adjusted to 2.0, 3.0, 3.5, 4.0, 4.5, 5.0, 6.0 7.0, 8.0, 9.0, 10.0 or 11.0 with HCl or NaOH.

[6] = Penicillium oxalicum glucoamylase: pH stability; format: biochemical
Experimental: as §1, §4, §5, §6
To assess the […] of the Penicillium oxalicum glucoamylase the Reaction condition assay was modifed in that the enzyme solution (50 micro g/mL) was preincubated for 20 hours in buffers with pH 2.0, 3.0, 3.5, 4.0, 4.5, 5.0, 6.0 7.0, 8.0, 9.0, 10.0 and 11.0 using the buffers described under pH optimum. After preincubation, 20 microL soluble starch to a final volume of 100 microL was added to the solution and the assay was performed as described above.

[7] = Penicillium oxalicum glucoamylase: heat stability; format: biochemical; conditions: for Relative activity (%): Heat stability
Experimental: as §1, §2, §4, §5
To assess the heat stability of the Penicillium oxalicum glucoamylase the Reaction condition assay was modifed in that the enzyme solution and acetate buffer was preincubated for 15 min at 20, 30, 40, 50, 60, 70, 75, 80, 85, 90 and 95° C. Following the incubation 20 microL of starch was added to the solution and the assay was performed as described above.

[8] = culture supernatant, 32° C., 1 week
[9] = aspergillopepsin I, incubation 32° C. overnight

B1: Penicillium oxalicum glucoamylase: wild type Penicillium oxalicum glucoamylase disclosed in SEQ ID NO: 9 (protein, listed as Penicillium oxalicum)
chain: MRLTLLSGVAGVLCAGQLTAARPDPKGGNLTPFIHKEGERSLQGILDNLGGRGKKTPGTAAGLFIASPNTENPNYYYTWTRDSALTAKCLIDLFEDSRAKFPIDRKYLETGIRDYVSSQAILQSVSNPSGTLKDGSGLGEPKFEIDLNPFSGAWGRPQRDGPALRATAMITYANYLISHGQKSDVSQVMWPIIANDLAYVGQYWNNTGFDLWEEVDGSSFFTIAVQHRALVEGSQLAKKLGKSCDACDSQPPQILCFLQSFWNGKYITSNINTQASRSGIDLDSVLGSIHTFDPEAACDDATFQPCSARALANHKVYVDSFRSIYKINAGLAEGSAANVGRYPEDVYQGGNPWYLATLGASELLYDALYQWDRLGKLEVSETSLSFFKDFDATVKIGSYSRNSKTYKKLTQSIKSYADGFIQLVQQYTPSNGSLAEQYDRNTAAPLSANDLTWSFASFLTATQRRDAVVPPSWGAKSANKVPTTCSASPVVGTYKAPTATFSSKTKCVPAKDIVPITFYLIENTYYGENVFMSGNITALGNWDAKKGFPLTANLYTQDQNLWFASVEFIPAGTPFEYKYYKVEPNGDITWEKGPNRVFVAPTGCPVQPHSNDVWQF
- cleavage by host proteases during fermentation [1]: cleaved by host proteases during fermentation
- cleaved glucoamylase (ca. 60 kDa) [1, 8]: 10%
- intact glucoamylase (ca. 70 kDa) [1, 8]: 90%
- activity maintained at 95° C. ([2]; 95° C.): more than 80%
- Relative activity (%) ([2]; 20° C.): 63.6%
- Relative activity (%) ([2]; 30° C.): 71.7%
- Relative activity (%) ([2]; 40° C.): 86.4%
- Relative activity (%) ([2]; 50° C.): 99.4%
- Relative activity (%) ([2]; 60° C.): 94.6%
- Relative activity (%) ([2]; 70° C.): 100.0%
- Relative activity (%) ([2]; 80° C.): 92.9%
- Relative activity (%) ([2]; 85° C.): 92.5%
- Relative activity (%) ([2]; 90° C.): 82.7%
- Relative activity (%) ([2]; 95° C.): 82.8%
- cleaved glucoamylase (ca. 60 kDa) ([3]; incubation 4° C. overnight): 60%
- intact glucoamylase (ca. 70 kDa) ([3]; incubation 4° C. overnight): 40%
- cleaved glucoamylase (ca. 60 kDa) ([3]; incubation 32° C. overnight): 90%
- intact glucoamylase (ca. 70 kDa) ([3]; incubation 32° C. overnight): 10%
- intact glucoamylase (ca. 70 kDa) ([4]; aspergillopepsin I, incubation 4° C. overnight): 100%
- cleaved glucoamylase (ca. 60 kDa) [4, 9]: 10%
- intact glucoamylase (ca. 70 kDa) [4, 9]: 90%
- SDS-PAGE result after protease treatment ([4]; proteases (aspergillopepsin I, aorsin)): degraded by proteases
- pH of highest activity ([5]; at the given conditions): 5.0
- activity maintained from pH 2 to 7 ([5]; pH 2 to 7): more than 50%
- Relative activity (%) ([5]; pH 2.0): 71.4%
- Relative activity (%) ([5]; pH 3.0): 78.6%
- Relative activity (%) ([5]; pH 3.5): 77.0%
- Relative activity (%) ([5]; pH 4.0): 91.2%
- Relative activity (%) ([5]; pH 4.5): 84.2%
- Relative activity (%) ([5]; pH 5.0): 100.0%
- Relative activity (%) ([5]; pH 6.0): 55.5%
- Relative activity (%) ([5]; pH 7.0): 66.7%
- Relative activity (%) ([5]; pH 8.0): 30.9%
- Relative activity (%) ([5]; pH 9.0): 17.8%
- Relative activity (%) ([5]; pH 10.0): 15.9%
- Relative activity (%) ([5]; pH 11.0): 16.1%
- Relative activity (%) ([6]; preincubated 20 hours at pH 2.0): 17.4%
- Relative activity (%) ([6]; preincubated 20 hours at pH 3.0): 98.0%
- Relative activity (%) ([6]; preincubated 20 hours at pH 3.5): 98.0%
- Relative activity (%) ([6]; preincubated 20 hours at pH 4.0): 103.2%
- Relative activity (%) ([6]; preincubated 20 hours at pH 4.5): 100.0%
- Relative activity (%) ([6]; preincubated 20 hours at pH 5.0): 93.4%
- Relative activity (%) ([6]; preincubated 20 hours at pH 6.0): 71.2%
- Relative activity (%) ([6]; preincubated 20 hours at pH 7.0): 90.7%
- Relative activity (%) ([6]; preincubated 20 hours at pH 8.0): 58.7%
- Relative activity (%) ([6]; preincubated 20 hours at pH 9.0): 17.4%
- Relative activity (%) ([6]; preincubated 20 hours at pH 10.0): 17.0%
- Relative activity (%) ([6]; preincubated 20 hours at pH 11.0): 17.2%
- Relative activity (%) ([7]; preincubated 15 min at 20° C.): 91.0%
- Relative activity (%) ([7]; preincubated 15 min at 30° C.): 92.9%
- Relative activity (%) ([7]; preincubated 15 min at 40° C.): 88.1%
- Relative activity (%) ([7]; preincubated 15 min at 50° C.): 100.0%
- Relative activity (%) ([7]; preincubated 15 min at 60° C.): 96.9%
- Relative activity (%) ([7]; preincubated 15 min at 70° C.): 86.0%
- Relative activity (%) ([7]; preincubated 15 min at 80° C.): 34.8%
- Relative activity (%) ([7]; preincubated 15 min at 85° C.): 36.0%
- Relative activity (%) ([7]; preincubated 15 min at 90° C.): 34.2%
- Relative activity (%) ([7]; preincubated 15 min at 95° C.): 34.8%
- activity maintained after preincubation ([7]; up to 70° C., preincubation for 15 min): more than 80%
